Consider 1 molecule from patent publication US20070244048A1 (published 2007).

Assay [1] addresses T1, human NMUR1 (human, UniProt Q9HB89 1-426).
T1 construct: whole, on cells; Stably expressed in cells (FLIPR); also called hNMUR1; human R1
T1 sequence (looked up): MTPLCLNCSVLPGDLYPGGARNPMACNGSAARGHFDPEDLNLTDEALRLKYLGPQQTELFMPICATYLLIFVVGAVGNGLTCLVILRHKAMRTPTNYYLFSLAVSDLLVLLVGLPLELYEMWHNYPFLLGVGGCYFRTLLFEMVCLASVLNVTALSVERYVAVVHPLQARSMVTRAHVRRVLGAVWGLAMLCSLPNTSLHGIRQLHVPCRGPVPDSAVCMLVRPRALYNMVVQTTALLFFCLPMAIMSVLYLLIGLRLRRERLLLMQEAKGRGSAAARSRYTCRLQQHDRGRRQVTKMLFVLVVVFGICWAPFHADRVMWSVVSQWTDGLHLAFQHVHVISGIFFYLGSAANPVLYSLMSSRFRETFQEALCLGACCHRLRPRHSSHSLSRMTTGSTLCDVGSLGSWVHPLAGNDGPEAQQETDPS
Briefly: 125I-hNMU-25 displacement, HEK cell membranes. In short, it runs like this:
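HEK cell membranes (2-5 μg) incubated with […] ¹²⁵I-hNMU-25 and peptides for 80 min at room temperature in TrisCl pH 7.4 buffer with MgCl₂, EDTA, bacitracin and phosphoramidon. Bound ligand collected by filtration and scintillation counting; nonspecific binding with 1 μM hNMU-25. IC₅₀ from curve fitting.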

In assay [2] the target is T2, mouse NMUR2 (mouse, UniProt Q8BZ39 1-395).
T2 construct: whole, on cells; also called mouse R2
T2 sequence (Q8BZ39 whole entry): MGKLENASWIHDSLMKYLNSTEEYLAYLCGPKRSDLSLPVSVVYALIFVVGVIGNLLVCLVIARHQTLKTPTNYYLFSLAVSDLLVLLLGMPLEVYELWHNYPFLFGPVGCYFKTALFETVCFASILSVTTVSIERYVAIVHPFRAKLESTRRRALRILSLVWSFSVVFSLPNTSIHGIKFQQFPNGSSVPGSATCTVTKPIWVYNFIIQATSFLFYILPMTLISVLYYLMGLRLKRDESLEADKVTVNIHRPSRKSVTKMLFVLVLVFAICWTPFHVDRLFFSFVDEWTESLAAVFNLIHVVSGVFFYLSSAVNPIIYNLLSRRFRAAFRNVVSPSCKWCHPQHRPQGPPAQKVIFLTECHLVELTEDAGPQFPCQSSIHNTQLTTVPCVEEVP
Briefly: 125I-hNMU-25 displacement, cell membranes.

The next assay concerns the target T3, mouse NMUR1-ATG (mouse, UniProt O55040 1-428).
T3 construct: whole, on cells; Cell line with engineered ATG start codon in place of the genomic CTG; also called mouse R1-ATG
T3 sequence (looked up): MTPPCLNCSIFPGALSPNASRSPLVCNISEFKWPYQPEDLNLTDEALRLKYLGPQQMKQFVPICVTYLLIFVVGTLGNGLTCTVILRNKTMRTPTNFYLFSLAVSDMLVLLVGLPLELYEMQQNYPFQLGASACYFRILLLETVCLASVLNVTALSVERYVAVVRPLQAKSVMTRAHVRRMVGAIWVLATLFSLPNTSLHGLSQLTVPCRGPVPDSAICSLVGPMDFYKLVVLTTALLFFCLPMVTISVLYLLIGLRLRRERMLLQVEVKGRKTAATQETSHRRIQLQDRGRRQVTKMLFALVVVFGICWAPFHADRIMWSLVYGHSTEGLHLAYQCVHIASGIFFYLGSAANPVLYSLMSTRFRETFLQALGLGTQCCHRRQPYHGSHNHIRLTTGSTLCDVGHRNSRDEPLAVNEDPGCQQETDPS
Briefly: 125I-hNMU-25 displacement, cell membranes.

Assay [3] deals with T1, human NMUR1. Kind of assay: 125I-hNMU-25 displacement, cell membranes.
For the next assay, the target named is T4, rat NMUR2 (rat, UniProt Q9ESQ4 1-395).
T4 construct: whole, on cells; also called rat R2
T4 sequence (Q9ESQ4 whole entry): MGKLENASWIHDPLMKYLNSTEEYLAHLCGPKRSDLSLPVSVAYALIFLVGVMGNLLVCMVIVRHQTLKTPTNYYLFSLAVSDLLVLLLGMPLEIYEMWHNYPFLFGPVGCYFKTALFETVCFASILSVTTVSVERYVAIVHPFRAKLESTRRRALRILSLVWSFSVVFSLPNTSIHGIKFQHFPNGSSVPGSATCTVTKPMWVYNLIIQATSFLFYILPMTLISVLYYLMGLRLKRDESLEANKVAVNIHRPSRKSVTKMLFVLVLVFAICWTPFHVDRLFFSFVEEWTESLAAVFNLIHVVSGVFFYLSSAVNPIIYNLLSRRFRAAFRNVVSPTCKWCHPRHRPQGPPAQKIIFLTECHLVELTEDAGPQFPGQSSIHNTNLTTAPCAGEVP
Kind of assay: 125I-hNMU-25 displacement, cell membranes.

The target in assay [4] is T5, rat NMUR1-ATG (rat, UniProt Q9JJI5 1-425).
T5 construct: whole, on cells; Cell line with engineered ATG start codon in place of the genomic TTG; also called rat R1-ATG
T5 sequence (looked up): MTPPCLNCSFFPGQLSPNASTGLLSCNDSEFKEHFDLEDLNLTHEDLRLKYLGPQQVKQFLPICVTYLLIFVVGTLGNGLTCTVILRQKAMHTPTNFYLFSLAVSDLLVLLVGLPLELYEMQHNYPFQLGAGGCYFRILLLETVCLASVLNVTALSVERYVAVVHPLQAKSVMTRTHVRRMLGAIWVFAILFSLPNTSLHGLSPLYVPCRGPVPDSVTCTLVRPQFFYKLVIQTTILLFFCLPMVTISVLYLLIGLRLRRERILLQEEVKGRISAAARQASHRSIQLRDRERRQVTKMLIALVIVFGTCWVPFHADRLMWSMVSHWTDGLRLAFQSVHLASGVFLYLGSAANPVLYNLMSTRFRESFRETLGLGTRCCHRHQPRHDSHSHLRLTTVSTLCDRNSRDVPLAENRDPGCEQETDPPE
Kind of assay: 125I-hNMU-25 displacement, cell membranes.

The next assay concerns the target T6, mouse NMUR1-CTG (mouse, UniProt O55040 1-428).
T6 construct: whole, on cells; Cell line with the start codon (CTG) as predicted from genomic databases; also called mouse R1-CTG
T6 sequence (looked up): T3 sequence (looked up)
Kind of assay: 125I-hNMU-25 displacement, cell membranes.

The next assay addresses T7, rat NMUR1-TTG (rat, UniProt Q9JJI5 1-425).
T7 construct: whole, on cells; Cell line with the start codon (TTG) as predicted from genomic databases; also called rat R1-TTG
T7 sequence (looked up): T5 sequence (looked up)
Kind of assay: 125I-hNMU-25 displacement, cell membranes.

Assay [5] concerns the target T8, human NMUR2 (human, UniProt Q9GZQ4 1-415).
T8 construct: whole, on cells; Stably expressed in cells (FLIPR); also called hNMUR2; human R2
Kind of assay: 125I-hNMU-25 displacement, cell membranes.

Assay [6] concerns the target T2, mouse NMUR2. Kind of assay: cell-based or functional assay.
Assay [7] deals with T5, rat NMUR1-ATG. Briefly: cell-based or functional assay.
For assay [8], the target named is T8, human NMUR2. Briefly: cell-based or functional assay.

No end group written: not given here.

T8 sequence (Q9GZQ4 whole entry): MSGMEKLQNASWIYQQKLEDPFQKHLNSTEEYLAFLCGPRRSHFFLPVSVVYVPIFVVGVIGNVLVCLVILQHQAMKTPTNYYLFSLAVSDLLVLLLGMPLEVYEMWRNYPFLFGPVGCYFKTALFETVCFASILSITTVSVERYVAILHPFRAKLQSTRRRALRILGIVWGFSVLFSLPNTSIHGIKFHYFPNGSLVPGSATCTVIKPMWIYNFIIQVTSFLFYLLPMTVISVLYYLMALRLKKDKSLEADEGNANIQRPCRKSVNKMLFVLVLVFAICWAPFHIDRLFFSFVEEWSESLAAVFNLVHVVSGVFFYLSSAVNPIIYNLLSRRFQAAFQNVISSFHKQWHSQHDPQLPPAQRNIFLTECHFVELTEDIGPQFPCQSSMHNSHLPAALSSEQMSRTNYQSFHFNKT

FRVDEEFQSPFASQSRGYFLFRPRN-NH2 (also called hNMU-25; native hNMU) [human NMU-25]: the “% activity (binding)” value with human NMUR1 [1] was found to be 100%. For the same molecule, the IC50 amounted to 0.47 nM with human NMUR1 [1]; 0.2 nM with mouse NMUR2 [2]; 0.4 nM with mouse NMUR1-ATG; 0.14 nM in the assay with human NMUR1 [3]; 0.6 nM in the assay with rat NMUR2; 1.2 nM in the assay with rat NMUR1-ATG [4]. Further, the figures for the IC50 with mouse NMUR1-CTG, with rat NMUR1-TTG and with human NMUR2 [5] were 0.15 nM, 0.2 nM and 0.056 nM, respectively. In addition, the results for the “IC50 (nM), functional” value with mouse NMUR2 [6], in the assay with rat NMUR1-ATG [7] and with human NMUR2 [8] were 0.2 nM, 1.3 nM and 0.8 nM, respectively.

As a reminder, the IC50 is the concentration needed to halve the response being measured.
